From article PMC12785155, “Phytochrome B stabilizes the KNOX transcription factor BP/KNAT1 to promote light-initiated seed germination in Arabidopsis thaliana”

T1: BP/KNAT1 (B…US) (Arabidopsis thaliana, UniProt P46639 1-398)
T1 sequence: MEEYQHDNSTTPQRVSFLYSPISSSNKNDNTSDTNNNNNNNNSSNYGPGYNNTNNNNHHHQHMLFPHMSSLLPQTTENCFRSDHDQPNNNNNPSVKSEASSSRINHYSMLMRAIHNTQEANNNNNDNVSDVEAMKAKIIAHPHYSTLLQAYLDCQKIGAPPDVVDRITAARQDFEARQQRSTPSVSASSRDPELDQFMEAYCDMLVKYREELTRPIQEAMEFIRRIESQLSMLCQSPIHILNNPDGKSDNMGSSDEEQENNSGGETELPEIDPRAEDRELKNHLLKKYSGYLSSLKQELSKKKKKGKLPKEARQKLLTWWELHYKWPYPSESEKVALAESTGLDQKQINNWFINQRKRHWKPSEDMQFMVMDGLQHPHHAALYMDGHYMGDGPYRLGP


Assays:
BP/KNAT1 (B…US) [1] = target: T1, BP/KNAT1 (B…US); assay: EMSA; excess unlabeled probe reduced binding; LightShift Chemiluminescent EMSA kit; 0.5 ug BP-His with biotin-labeled probe, 20 min at room temperature, 6% polyacrylamide gel; buffer, salt and pH not stated; details: protein: recombinant; tags: His (pET32a, per Methods); Results text says BP-MBP; label: biotin (both strands, per oligo names); blunt
BP/KNAT1 (B…US) [2] = target: T1, BP/KNAT1 (B…US); assay: competition; excess unlabeled mutant vs biotin-labeled NCED6 probe; did not effectively reduce binding; LightShift Chemiluminescent EMSA kit; 0.5 ug BP-His with biotin-labeled probe, 20 min at room temperature, 6% polyacrylamide gel; buffer, salt and pH not stated; details: protein: recombinant; tags: His (pET32a, per Methods); Results text says BP-MBP; blunt
BP/KNAT1 (B…US) [3] = target: T1, BP/KNAT1 (B…US); assay: competition; excess unlabeled mutant vs biotin-labeled NCED9 probe; did not effectively reduce binding; LightShift Chemiluminescent EMSA kit; 0.5 ug BP-His with biotin-labeled probe, 20 min at room temperature, 6% polyacrylamide gel; buffer, salt and pH not stated; details: protein: recombinant; tags: His (pET32a, per Methods); Results text says BP-MBP; blunt

Row | Binder | binding result (BP/KNAT1 (B…US) [1]) | also measured
1 | NCED9 probe (dsDNA) DNA 1: CATTACACTTTTTTAAAATGACTGGAATGCATGACGTTTGGGCAC DNA 2: GTGCCCAAACGTCATGCATTCCAGTCATTTTAAAAAAGTGTAATG | binds | 
2 | NCED6 probe (dsDNA) DNA 1: TAGCCGGACATCATTTATTTGACGGTGACGGAATGATTCACGCCGTTA DNA 2: TAACGGCGTGAATCATTCCGTCACCGTCAAATAAATGATGTCCGGCTA | binds | 
3 | NCED6-M mutant competitor (dsDNA) DNA 1: TAGCCGGACATCATTTATTAAAAGGAAAAGGAATGATTCACGCCGTTA DNA 2: TAACGGCGTGAATCATTCCTTTTCCTTTTAATAAATGATGTCCGGCTA |  | binding result (BP/KNAT1 (B…US) [2]): no binding
4 | NCED9-M mutant competitor (dsDNA) DNA 1: CATTACACTTTTTTAAAAAAAATGGAATGCAAAAAGTTTGGGCAC DNA 2: GTGCCCAAACTTTTTGCATTCCATTTTTTTTAAAAAAGTGTAATG |  | binding result (BP/KNAT1 (B…US) [3]): no binding
